From IntAct's records for PubMed 33513601

Biological target: un13d_human UNC13D (UniProt Q70J99)
Sequence (Q70J99 whole entry): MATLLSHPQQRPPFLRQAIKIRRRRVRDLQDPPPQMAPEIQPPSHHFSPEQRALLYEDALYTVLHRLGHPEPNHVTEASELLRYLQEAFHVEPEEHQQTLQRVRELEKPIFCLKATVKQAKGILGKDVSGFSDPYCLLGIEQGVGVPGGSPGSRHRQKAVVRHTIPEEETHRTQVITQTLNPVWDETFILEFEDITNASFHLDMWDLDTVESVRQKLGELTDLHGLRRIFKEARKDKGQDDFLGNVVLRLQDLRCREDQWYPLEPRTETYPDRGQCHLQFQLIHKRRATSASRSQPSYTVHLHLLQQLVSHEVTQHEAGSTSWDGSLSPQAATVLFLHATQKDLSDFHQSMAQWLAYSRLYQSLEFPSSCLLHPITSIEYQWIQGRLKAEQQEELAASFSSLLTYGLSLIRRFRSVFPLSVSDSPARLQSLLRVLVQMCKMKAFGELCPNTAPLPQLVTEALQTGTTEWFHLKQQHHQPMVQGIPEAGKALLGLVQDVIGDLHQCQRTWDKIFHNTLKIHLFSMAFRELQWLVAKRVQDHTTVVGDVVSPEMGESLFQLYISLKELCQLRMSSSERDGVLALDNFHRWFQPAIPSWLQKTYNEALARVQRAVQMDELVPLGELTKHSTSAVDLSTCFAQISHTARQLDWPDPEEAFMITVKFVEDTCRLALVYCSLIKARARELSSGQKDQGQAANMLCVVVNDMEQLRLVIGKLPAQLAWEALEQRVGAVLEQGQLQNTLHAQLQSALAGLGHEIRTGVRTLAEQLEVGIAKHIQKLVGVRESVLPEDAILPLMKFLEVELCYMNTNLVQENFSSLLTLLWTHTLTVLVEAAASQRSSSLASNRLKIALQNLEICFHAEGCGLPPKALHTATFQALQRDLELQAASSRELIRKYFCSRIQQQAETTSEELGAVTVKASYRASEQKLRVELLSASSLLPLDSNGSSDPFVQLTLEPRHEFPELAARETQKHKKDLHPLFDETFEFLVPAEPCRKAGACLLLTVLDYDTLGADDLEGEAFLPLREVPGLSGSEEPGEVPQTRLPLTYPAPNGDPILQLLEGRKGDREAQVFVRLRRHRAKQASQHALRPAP

Rho-related GTP-binding protein RhoG (Homo sapiens), P84095 Q61L, sequence (P84095 whole entry Q61L): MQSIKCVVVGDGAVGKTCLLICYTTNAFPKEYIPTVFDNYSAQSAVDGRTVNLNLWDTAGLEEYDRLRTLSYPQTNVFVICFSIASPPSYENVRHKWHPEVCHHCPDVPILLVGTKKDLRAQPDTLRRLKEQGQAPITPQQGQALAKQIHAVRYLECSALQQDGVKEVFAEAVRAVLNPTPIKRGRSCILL

Substance: Rho-related GTP-binding protein RhoG (Homo sapiens), P84095 Q61L
- effect of a mutation on the interaction: with no effect
